Results as given in paper PMC3020921 (Molecular Biology of the Cell, 2011).

B1: endogenous NLK protein of PC12 cells (enzyme, rat (endogenous in PC12), UniProt D3ZSZ3 1-527, looked up)
chain: MSLCGTRANAKMMAAYNGGTSAAAAGHHHHHHHHLPHLPPPHLHHHHHPQHHLHPGSAAAVHPVQQHTSSAAAAAAAAAAAAAMLNPGQQQPYFPSPAPGQAPGPAAAAPAQVQAAAAATVKAHHHQHSHHPQQQLDIEPDRPIGYGAFGVVWSVTDPRDGKRVALKKMPNVFQNLVSCKRVFRELKMLCFFKHDNVLSALDILQPPHIDYFEEIYVVTELMQSDLHKIIVSPQPLSSDHVKVFLYQILRGLKYLHSAGILHRDIKPGNLLVNSNCVLKICDFGLARVEELDESRHMTQEVVTQYYRAPEILMGSRHYSNAIDIWSVGCIFAELLGRRILFQAQSPIQQLDLITDLLGTPSLEAMRTACEGAKAHILRGPHKQPSLPVLYTLSSQATHEAVHLLCRMLVFDPSKRISAKDALAHPYLDEGRLRYHTCMCKCCFSTSTGRVYTSDFEPVTNPKFDDTFEKNLSSVRQVKEIIHQFILEQQKGNRVPLCINPQSAAFKSFISSTVAQPSEMPPSPLVWE

Tests used:
[1] = biological target: Flag-tagged Nemo-like kinase (NLK), wild type; assay: SEC
SEC = biological target: the molecule itself; assay: SEC

Molecule	stoichiometry N [1]	stoichiometry N (SEC)
Flag-tagged Nemo-like kinase (NLK), wild type (enzyme)	2	
B1		2
